Target: His6-BacA_(F134R), purified (Asticcacaulis biprosthecum)
Assay: SEC; 500 µl of purified proteins from the polymerization assay on Superdex 200 Increase 10/300 GL, column calibrated with standard proteins

stoichiometry N: 2
Substance: His6-BacA_(F134R), purified (natural protein)
